Reference: the supplement of paper PMC11246515
± gives the standard deviation of the averaged measurements.

Assay: total protein half-life in vivo (active degradation + dilution); higher = more stable protein
[1] = E. coli NCM3722 delta-clpP delta-lon delta-hslV, growth: N-lim chemostat, doubling time 6 h
[2] = E. coli NCM3722 delta-clpP, growth: N-lim chemostat, doubling time 6 h
[3] = E. coli NCM3722 delta-hslV, growth: N-lim chemostat, doubling time 6 h
[4] = E. coli NCM3722 delta-lon, growth: N-lim chemostat, doubling time 6 h
[5] = E. coli NCM3722 delta-smpB, growth: N-lim chemostat, doubling time 6 h
[6] = wild type E. coli NCM3722, growth: C-lim chemostat, doubling time 3 h
[7] = wild type E. coli NCM3722, growth: C-lim chemostat, doubling time 6 h
[8] = wild type E. coli NCM3722, growth: C-lim chemostat, doubling time 12 h
[9] = wild type E. coli NCM3722, growth: N-lim chemostat, doubling time 6 h
[10] = wild type E. coli NCM3722, growth: N-lim chemostat, doubling time 12 h
[11] = wild type E. coli NCM3722, growth: P-lim chemostat, doubling time 6 h
[12] = wild type E. coli NCM3722, growth: P-lim chemostat, doubling time 12 h

## MPANARSHAVLTTESKVTIRGQTTIPAPVREALKLKPGQDSIHYEILPGGQVFMCRLGDEQEDHTMNAFLRFLDADIQNNPQKTRPFNIQQGKKLVAGMDVNIDDEIGDDE
[1]
  total protein half-life in vivo: 5.19 ± 0.069 h
[2]
  total protein half-life in vivo: 2.83 ± 0.037 h
[3]
  total protein half-life in vivo: 3.29 ± 0.22 h
[4]
  total protein half-life in vivo: 2.97 ± 0.61 h
[5]
  total protein half-life in vivo: 2.88 ± 0.047 h
[6]
  total protein half-life in vivo: > 4 h
[7]
  total protein half-life in vivo: 3.52 ± 0.75 h
[8]
  total protein half-life in vivo: 5.13 ± 1.2 h
[9]
  total protein half-life in vivo: 3.11 ± 0.63 h
[10]
  total protein half-life in vivo: 5.02 ± 0.3 h
[11]
  total protein half-life in vivo: 2.77 ± 0.39 h
[12]
  total protein half-life in vivo: 5.24 ± 0.056 h

## MEKNSLFSQRIRLRHLHTFVAVAQQGTLGRAAETLNLSQPALSKTLNELEQLTGARLFERGRQGAQLTLPGEQFLTHAVRVLDAINTAGRSLHRKEGLNNDVVRVGALPTAALGILPSVIGQFHQQQKETTLQVATMSNPMILAGLKTGEIDIGIGRMSDPELMTGLNYELLFLESLKLVVRPNHPLLQENVTLSRVLEWPVVVSPEGTAPRQHSDALVQSQGCKIPSGCIETLSASLSRQLTVEYDYVWFVPSGAVKDDLRHATLVALPVPGHGAGEPIGILTRVDATFSSGCQLMINAIRKSMPF
[1]
  total protein half-life in vivo: 5.7 ± 0.088 h
[2]
  total protein half-life in vivo: 2.66 ± 1.2 h
[3]
  total protein half-life in vivo: 2.014 ± 0.017 h
[4]
  total protein half-life in vivo: 4.21 ± 0.12 h
[5]
  total protein half-life in vivo: 1.61 ± 0.065 h
[6]
  total protein half-life in vivo: 1.77 ± 0.26 h
[7]
  total protein half-life in vivo: 3.159 ± 0.0044 h
[8]
  total protein half-life in vivo: 4.49 ± 0.46 h
[9]
  total protein half-life in vivo: 2.01 ± 0.12 h
[10]
  total protein half-life in vivo: 2.5 ± 0.039 h
[11]
  total protein half-life in vivo: 2.67 ± 0.7 h
[12]
  total protein half-life in vivo: 3.86 ± 0.13 h

## MFDFSKVVDRHGTWCTQWDYVADRFGTADLLPFTISDMDFATAPCIIEALNQRLMHGVFGYSRWKNDEFLAAIAHWFSTQHYTAIDSQTVVYGPSVIYMVSELIRQWSETGEGVVIHTPAYDAFYKAIEGNQRTVMPVALEKQADGWFCDMGKLEAVLAKPECKIMLLCSPQNPTGKVWTCDELEIMADLCERHGVRVISDEIHMDMVWGEQPHIPWSNVARGDWALLTSGSKSFNIPALTGAYGIIENSSSRDAYLSALKGRDGLSSPSVLALTAHIAAYQQGAPWLDALRIYLKDNLTYIADKMNAAFPELNWQIPQSTYLAWLDLRPLNIDDNALQKALIEQEKVAIMPGYTYGEEGRGFVRLNAGCPRSKLEKGVAGLINAIRAVR
[1]
  total protein half-life in vivo: 5.24 ± 1.1 h
[2]
  total protein half-life in vivo: 4.66 ± 0.39 h
[3]
  total protein half-life in vivo: 4.58 ± 0.52 h
[4]
  total protein half-life in vivo: 5.26 ± 0.077 h
[5]
  total protein half-life in vivo: 4.53 ± 0.058 h
[6]
  total protein half-life in vivo: 3.15 ± 0.095 h
[7]
  total protein half-life in vivo: 5.26 ± 0.26 h
[8]
  total protein half-life in vivo: 10.2 ± 2 h
[9]
  total protein half-life in vivo: 4.39 ± 0.095 h
[10]
  total protein half-life in vivo: 7.95 ± 0.93 h
[11]
  total protein half-life in vivo: 5.78 ± 0.25 h
[12]
  total protein half-life in vivo: 11 ± 1.4 h

## MEKKIGFIGCGNMGKAILGGLIASGQVLPGQIWVYTPSPDKVAALHDQFGINAAESAQEVAQIADIIFAAVKPGIMIKVLSEITSSLNKDSLVVSIAAGVTLDQLARALGHDRKIIRAMPNTPALVNAGMTSVTPNALVTPEDTADVLNIFRCFGEAEVIAEPMIHPVVGVSGSSPAYVFMFIEAMADAAVLGGMPRAQAYKFAAQAVMGSAKMVLETGEHPGALKDMVCSPGGTTIEAVRVLEEKGFRAAVIEAMTKCMEKSEKLSKS [P0A9L8]
[1]
  total protein half-life in vivo: 6.83 ± 1.6 h
[2]
  total protein half-life in vivo: 5.45 ± 0.76 h
[3]
  total protein half-life in vivo: 5.12 ± 0.073 h
[4]
  total protein half-life in vivo: 5.68 ± 0.49 h
[5]
  total protein half-life in vivo: 5.54 ± 0.52 h
[6]
  total protein half-life in vivo: 3.01 ± 0.19 h
[7]
  total protein half-life in vivo: 6.48 ± 1 h
[8]
  total protein half-life in vivo: 10.6 ± 2.5 h
[9]
  total protein half-life in vivo: 5.02 ± 0.91 h
[10]
  total protein half-life in vivo: 9.31 ± 1 h
[11]
  total protein half-life in vivo: 5.51 ± 0.83 h
[12]
  total protein half-life in vivo: 11.8 ± 0.66 h

## MALYTIGEVALLCDINPVTLRAWQRRYGLLKPQRTDGGHRLFNDADIDRIREIKRWIDNGVQVSKVKMLLSNENVDVQNGWRDQQETLLTYLQSGNLHSLRTWIKERGQDYPAQTLTTHLFIPLRRRLQCQQPTLQALLAILDGVLINYIAICLASARKKQGKDALVVGWNIQDTTRLWLEGWIASQQGWRIDVLAHSLNQLRPELFEGRTLLVWCGENRTSAQQQQLTSWQEQGHDIFPLGI
[2]
  total protein half-life in vivo: 1.79 h
[3]
  total protein half-life in vivo: 1.66 h
[4]
  total protein half-life in vivo: 3.39 ± 0.71 h
[5]
  total protein half-life in vivo: 1.34 ± 0.26 h
[6]
  total protein half-life in vivo: 1.64 ± 0.79 h
[7]
  total protein half-life in vivo: 3.86 ± 0.76 h
[8]
  total protein half-life in vivo: 4.23 ± 0.31 h
[9]
  total protein half-life in vivo: 2.04 h
[10]
  total protein half-life in vivo: 2.49 h
[11]
  total protein half-life in vivo: 1.98 h
[12]
  total protein half-life in vivo: 3.04 ± 0.58 h

## MKRAVVVFSGGQDSTTCLVQALQQYDEVHCVTFDYGQRHRAEIDVARELALKLGARAHKVLDVTLLNELAVSSLTRDSIPVPDYEPEADGIPNTFVPGRNILFLTLAAIYAYQVKAEAVITGVCETDFSGYPDCRDEFVKALNHAVSLGMAKDIRFETPLMWIDKAETWALADYYGKLDLVRNETLTCYNGFKGDGCGHCAACNLRANGLNHYLADKPTVMAAMKQKTGLR
[1]
  total protein half-life in vivo: 4.91 ± 0.072 h
[2]
  total protein half-life in vivo: 4.53 ± 0.16 h
[3]
  total protein half-life in vivo: 4.47 ± 0.14 h
[4]
  total protein half-life in vivo: 5.02 ± 0.59 h
[5]
  total protein half-life in vivo: 3.87 ± 0.57 h
[6]
  total protein half-life in vivo: 2.6 ± 0.17 h
[7]
  total protein half-life in vivo: 5.36 ± 0.46 h
[8]
  total protein half-life in vivo: 9.333 ± 0.044 h
[9]
  total protein half-life in vivo: 4.84 ± 0.59 h
[10]
  total protein half-life in vivo: 7.72 ± 0.73 h
[12]
  total protein half-life in vivo: 12.4 ± 1.3 h
